Source: patent publication US20200247894A1 (Regeneron, published 2020)

How the values were obtained:
[1] = target: T1, human IL2Rγ (endogenously expressed on cells) (human, UniProt P31785 23-369); assay: cell-based or functional assay
T1 sequence (looked up): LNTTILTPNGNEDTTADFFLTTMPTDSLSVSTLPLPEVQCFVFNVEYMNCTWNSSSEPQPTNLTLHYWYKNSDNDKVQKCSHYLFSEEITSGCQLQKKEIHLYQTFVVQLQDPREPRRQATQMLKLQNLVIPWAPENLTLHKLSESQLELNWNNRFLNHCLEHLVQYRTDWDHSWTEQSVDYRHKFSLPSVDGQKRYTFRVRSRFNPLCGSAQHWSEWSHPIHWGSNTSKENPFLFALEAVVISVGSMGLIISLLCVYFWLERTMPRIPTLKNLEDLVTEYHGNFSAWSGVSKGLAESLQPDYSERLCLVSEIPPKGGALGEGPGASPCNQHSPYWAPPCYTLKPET

[2] = target: T2, D1 domain of human IL-2Rγ extracellular domain expressed with a C-terminal myc-myc-hexahistidine tag (human); assay: SPR, mAb captured on anti-hFc, 25 C
T2 construct: also called human IL2Rγ domain 1
T2 chain: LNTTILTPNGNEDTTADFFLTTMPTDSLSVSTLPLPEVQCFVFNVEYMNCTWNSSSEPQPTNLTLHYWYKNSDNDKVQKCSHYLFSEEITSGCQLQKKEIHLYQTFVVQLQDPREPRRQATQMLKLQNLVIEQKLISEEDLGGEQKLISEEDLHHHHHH
Method in brief: (§1)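 First, a mouse anti-human Fc antibody was amine-coupled to the chip; test mAbs were then captured and IL2Rγ reagents bound in HBS-ET, pH 7.4. Dissociation was tracked for 8-10 minutes before 1:1 fitting of the sensorgrams.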

[3] = target: T2, D1 domain of human IL-2Rγ extracellular …; assay: SPR, mAb captured on anti-hFc, 37 C
Method in brief: as §1

[4] = target: T3, D2 domain of human IL2Rγ extracellular domain expressed with a C-terminal myc-myc-hexahistidine tag (human); assay: SPR, mAb captured on anti-hFc, 25 C
T3 construct: also called human IL2Rγ domain 2
T3 chain: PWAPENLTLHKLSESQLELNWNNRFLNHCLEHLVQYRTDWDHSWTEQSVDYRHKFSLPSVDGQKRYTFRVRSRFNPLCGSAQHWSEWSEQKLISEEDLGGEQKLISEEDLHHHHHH
Procedure: (§2) Equilibrium dissociation constants (KD values) for IL-2Rγ binding to purified anti-IL2Rγ monoclonal antibodies were determined using a Biacore 4000 instrument equipped with a real-time surface plasmon resonance biosensor. All binding studies were performed in 10 mM HEPES, 150 mM NaCl, 3 mM EDTA, and 0.05% v/v Surfactant Tween-20, pH 7.4 (HBS-ET) running buffer at 25° C. and 37° C. The Biacore sensor surface was first derivatized by amine coupling with a monoclonal mouse anti-human Fc antibody (GE, # BR-1008-39) to capture anti-IL2Rγ monoclonal antibodies.

[5] = target: T3, D2 domain of human IL2Rγ extracellular …; assay: SPR, mAb captured on anti-hFc, 37 C
Procedure: as §2

B1: H4H12913P2 (antibody, human IgG4 S228P, kappa, V domains shown)
VH: EVQLVESGGGVVRPGGSLRLSCAASGFTFDDYGMSWVRQAPGKGLEWISSINRNGGSADYADSVKGRFTISRDNAKNSLFLQMSSLRAEDTALYHCASGEFRFDYWGQGTLVTVSS
VL: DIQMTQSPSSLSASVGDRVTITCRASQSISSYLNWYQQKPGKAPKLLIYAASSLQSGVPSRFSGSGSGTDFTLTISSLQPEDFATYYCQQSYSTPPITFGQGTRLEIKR
notes: human IgG4
B1 was tested, and the “IC50; IL-4 250 pM; Ramos.2G6.4C10/STAT3-luc” value [1] was greater than 1e-07 M, the “IC50; IL-7 50 pM; NK92/hIL7R/STAT3-luc” value [1] was greater than 1e-07 M and the “IC50; IL-9 20 pM; NK92/hIL7R/STAT3-luc” value [1] was greater than 1e-07 M. The “IC50; IL-15 60 pM; NK92/hIL7R/STAT3-luc” value [1] was greater than 1e-07 M, the “Max Inhibition (%); IL-2 30 pM; NK92/hIL7R/STAT3-luc” value [1] was 24% and the “Max Inhibition (%); IL-4 250 pM; Ramos.2G6.4C10/STAT3-luc” value [1] was 55%. For the same binder, the “Max Inhibition (%); IL-7 50 pM; NK92/hIL7R/STAT3-luc” value [1] was 77%, the “Max Inhibition (%); IL-9 20 pM; NK92/hIL7R/STAT3-luc” value [1] was 57% and the “Max Inhibition (%); IL-15 60 pM; NK92/hIL7R/STAT3-luc” value [1] was 58%. The “100 nM Ag Bound” value [2] was 0 RU, the binding result [2] was “no binding (tested: 100 nM)” and the “100 nM Ag Bound” value [3] was 1 RU. For the same binder, the “100 nM Ag Bound” value [4] was 37 RU, the Kd [4] was 2.76 nM and the koff [4] was 0.000708 s⁻¹. For the same binder, the kon [4] was 256000 M⁻¹ s⁻¹, the t½ [4] was 16 min and the “100 nM Ag Bound” value [5] was 16 RU. For the same binder, the Kd [5] was 12.7 nM, the koff [5] was 0.00337 s⁻¹ and the kon [5] was 266000 M⁻¹ s⁻¹. The t½ [5] was 3.4 min.

B2: H4H12886P (antibody, human IgG4 S228P, kappa, V domains shown)
VH: EVQLVESGGGLVKPGGSLRLSCAASGFTFSTAWMSWVRQSPGRGLEWVGRMKSKTDGGTTFYAAPVKGRFTISRDDSKNTLYLQMNSLKTEDTAVYYCTTGLVPAFYKYYGVDVWGQGTTVTVSS
VL: DIQMTQSPSSLSASVGDRITITCQASQDITNYLNWYQQKPGKAPNLLIYDASNLVTGVPSRFSGSGSGTDFTFTILSLQPEDIATYYCQQYDSLLTFGPGTKVDIKR
notes: human IgG4
With B2 the “IC50; IL-4 250 pM; Ramos.2G6.4C10/STAT3-luc” value [1] was greater than 1e-07 M, the “IC50; IL-7 50 pM; NK92/hIL7R/STAT3-luc” value [1] was greater than 1e-07 M and the “IC50; IL-9 20 pM; NK92/hIL7R/STAT3-luc” value [1] was greater than 1e-07 M. For the same binder, the “IC50; IL-15 60 pM; NK92/hIL7R/STAT3-luc” value [1] was greater than 1e-07 M, the “Max Inhibition (%); IL-2 30 pM; NK92/hIL7R/STAT3-luc” value [1] was 27% and the “Max Inhibition (%); IL-4 250 pM; Ramos.2G6.4C10/STAT3-luc” value [1] was 92%. For the same binder, the “Max Inhibition (%); IL-7 50 pM; NK92/hIL7R/STAT3-luc” value [1] was 81%, the “Max Inhibition (%); IL-9 20 pM; NK92/hIL7R/STAT3-luc” value [1] was 84% and the “Max Inhibition (%); IL-15 60 pM; NK92/hIL7R/STAT3-luc” value [1] was 64%. For the same binder, the “Max Inhibition (%); IL-21 5 pM; NK92/hIL7R/STAT3-luc” value [1] was 18%, the “100 nM Ag Bound” value [2] was 0 RU and the “100 nM Ag Bound” value [3] was 0 RU. For the same binder, the binding result [3] was “no binding (tested: 100 nM)”, the “100 nM Ag Bound” value [4] was 35 RU and the Kd [4] was 0.535 nM. For the same binder, the koff [4] was 0.000148 s⁻¹, the kon [4] was 276000 M⁻¹ s⁻¹ and the t½ [4] was 78 min. For the same binder, the “100 nM Ag Bound” value [5] was 26 RU, the Kd [5] was 11.4 nM and the koff [5] was 0.000377 s⁻¹. It also gave a kon [5] of 33100 M⁻¹ s⁻¹ and a t½ [5] of 31 min.

B3: H4H12863P (antibody, human IgG4 S228P, kappa, V domains shown)
VH: QVQLVESGGGVVQPGRSLRLSCTASGFTFRSYDMYWVRQAPGKGLEWVSVITYDGNNKYYADSVKGRFTISRDNSKNTLFLQMSSLRPEDTAVYYCAKRGLIWVGESFDYWGQGTLVTVSS
VL: DIQMTQSPSTLSASVGDRVTITCRASQSINSWLAWYQQKPGKAPNLLIYKASSLESGVPSRFSGSGSGTEFTLTISSLQPDDFATYYCQQYKSYSWTFGQGTKVEIKR
notes: human IgG4
For B3, the “IC50; IL-2 30 pM; NK92/hIL7R/STAT3-luc” value [1] was 4.3e-10 M, the “IC50; IL-4 250 pM; Ramos.2G6.4C10/STAT3-luc” value [1] was 3.6e-10 M and the “IC50; IL-7 50 pM; NK92/hIL7R/STAT3-luc” value [1] was 1.5e-09 M. For the same binder, the “IC50; IL-9 20 pM; NK92/hIL7R/STAT3-luc” value [1] was 4.7e-10 M, the “IC50; IL-21 5 pM; NK92/hIL7R/STAT3-luc” value [1] was greater than 1e-07 M and the “Max Inhibition (%); IL-2 30 pM; NK92/hIL7R/STAT3-luc” value [1] was 48%. The “Max Inhibition (%); IL-4 250 pM; Ramos.2G6.4C10/STAT3-luc” value [1] was 70%, the “Max Inhibition (%); IL-7 50 pM; NK92/hIL7R/STAT3-luc” value [1] was 42% and the “Max Inhibition (%); IL-9 20 pM; NK92/hIL7R/STAT3-luc” value [1] was 38%. The “Max Inhibition (%); IL-15 60 pM; NK92/hIL7R/STAT3-luc” value [1] was 30%, the “Max Inhibition (%); IL-21 5 pM; NK92/hIL7R/STAT3-luc” value [1] was 28% and the “100 nM Ag Bound” value [2] was 55 RU. The Kd [2] was 4.74 nM, the koff [2] was 0.000538 s⁻¹ and the kon [2] was 114000 M⁻¹ s⁻¹. The t½ [2] was 21 min, the “100 nM Ag Bound” value [3] was 39 RU and the Kd [3] was 8.69 nM. It also gave a koff [3] of 0.00221 s⁻¹, a kon [3] of 254000 M⁻¹ s⁻¹ and a t½ [3] of 5 min. For the same binder, the “100 nM Ag Bound” value [4] was 0 RU and the “100 nM Ag Bound” value [5] was -1 RU.

B4: H4H12859P (antibody, human IgG4 S228P, kappa, V domains shown)
VH: QVQLVQSGAEVKKPGASVRVSCKASGYTFTDYDIHWVRQAPGHGLEWMGWINPNSGGTNYAQKFQGRVTMTRDTSISTVYMDLSRLRSDDTAVYYCARADYSSSYYYYGMDVWGQGTTVTVSS
VL: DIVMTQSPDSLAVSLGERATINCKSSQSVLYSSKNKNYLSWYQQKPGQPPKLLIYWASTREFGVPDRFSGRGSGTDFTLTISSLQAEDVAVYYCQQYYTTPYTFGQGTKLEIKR
notes: human IgG4
For B4, the “Max Inhibition (%); IL-2 30 pM; NK92/hIL7R/STAT3-luc” value [1] was 29%, the “100 nM Ag Bound” value [2] was 0 RU and the “100 nM Ag Bound” value [3] was 0 RU. For the same binder, the binding result [3] was “no binding (tested: 100 nM)”, the “100 nM Ag Bound” value [4] was -1 RU and the “100 nM Ag Bound” value [5] was -1 RU.

B5: H4H12890P (antibody, human IgG4 S228P, kappa, V domains shown)
VH: EVQLVESGGGLVQPGGSLRLSCAASGFTFNNYAMHWVRQAPGKGLEYVSSISSSGGSTYYEDSVKGRFTISRDNSKNTLYLQMGSLRAEDMAVYYCARSFYGSGTYYDTFDMWGQGTMVTVSS
VL: DIQMTQSPSSLSASIGDRVTITCRASQSISRYLNWYQQKPGKAPKLLIYAASSLQSGVPSRFSASGSGTDFTLTISSLQPEDFATYYCQQSYSTPFTFGQGTKLEIKR
notes: human IgG4
For B5, the “IC50; IL-4 250 pM; Ramos.2G6.4C10/STAT3-luc” value [1] was greater than 1e-07 M, the “IC50; IL-7 50 pM; NK92/hIL7R/STAT3-luc” value [1] was greater than 1e-07 M and the “Max Inhibition (%); IL-2 30 pM; NK92/hIL7R/STAT3-luc” value [1] was 15%. For the same binder, the “Max Inhibition (%); IL-4 250 pM; Ramos.2G6.4C10/STAT3-luc” value [1] was 54%, the “Max Inhibition (%); IL-7 50 pM; NK92/hIL7R/STAT3-luc” value [1] was 66% and the “Max Inhibition (%); IL-9 20 pM; NK92/hIL7R/STAT3-luc” value [1] was 36%. The “Max Inhibition (%); IL-15 60 pM; NK92/hIL7R/STAT3-luc” value [1] was 35%, the “100 nM Ag Bound” value [2] was 1 RU and the binding result [2] was “no binding (tested: 100 nM)”. The “100 nM Ag Bound” value [3] was 2 RU, the “100 nM Ag Bound” value [4] was -1 RU and the “100 nM Ag Bound” value [5] was 1 RU.

B6: H4H12871P (antibody, human IgG4 S228P, kappa, V domains shown)
VH: QVQLQESGPGLVKPSQTLSLTCTVSGGSITSGGYYWSWIRQYPGQGLEWIGYIYYSGKTYYNPSFTSRITISVDTSKKQFSLKMSSVTAADTAVYYCARAGFTSSNGWFDPWGQGTLVTVSS
VL: DIQMTQSPSSLSASVGDRVTITCRASQNIRSYLNWYQQKPGKAPKLLIYSASSLQSGVPSRFSGSGSGTDFTLTISSLQPEDFPTYYCQQTYSSPWTFGPGTKVEIKR
notes: human IgG4; also called REGN9434
With B6 the “IC50; IL-7 50 pM; NK92/hIL7R/STAT3-luc” value [1] was 8.2e-10 M, the “Max Inhibition (%); IL-4 250 pM; Ramos.2G6.4C10/STAT3-luc” value [1] was 31% and the “Max Inhibition (%); IL-7 50 pM; NK92/hIL7R/STAT3-luc” value [1] was 36%. The “100 nM Ag Bound” value [2] was 47 RU, the Kd [2] was 11.8 nM and the koff [2] was 0.00111 s⁻¹. For the same binder, the kon [2] was 94000 M⁻¹ s⁻¹, the t½ [2] was 10 min and the “100 nM Ag Bound” value [3] was 33 RU. It also gave a Kd [3] of 21.2 nM, a koff [3] of 0.0036 s⁻¹ and a kon [3] of 170000 M⁻¹ s⁻¹. For the same binder, the t½ [3] was 3.2 min, the “100 nM Ag Bound” value [4] was 0 RU and the “100 nM Ag Bound” value [5] was -1 RU.
